Kd and yeast surface expression data for 58 variants are collected here from the FLAb antibody collection (doi:10.7554/elife.23156).

Sequences and labels used below:
B1: scFv; the commonest letter at each place (parent)
chain 1: EVKLDETGGGLVQPGRPMKLSCVASGFTFSDYWMNWVRQSPEKGLEWVAQIRNKPYNYETYYSDSVKGRFTISRDDSKSSVYLQMNNLRVEDMGIYYCTGSYYGMDYWGQGTSVTVS
chain 2: DVVMTQTPLSLPVSLGDQASISCRSSQSLVHSNGNTYLRWYLQKPGQSPKVLIYKVSNRFSGVPDRFSGSGSGTDFTLKISRVEAEDLGVYFCSQSTHVPWTFGGGTKLEIK

The data set “fluorescein” covers variants of B1. The data set can be described thus: Kd (Tite-Seq). The conditions noted are these: with fluorescein; format: scFv 4-4-20, heavy + light.
Data set [1] covers variants of B1. The data set can be described thus: yeast surface expression (ratio to wild type); higher = more expressed. The conditions noted are these: format: scFv 4-4-20, heavy + light.

Turning to chain 1 F29A M34R, in the data set with fluorescein, the Kd is ≥ 10 µM. In data set [1], the yeast surface expression is 1.01.
The corresponding values for chain 1 S30M V37E are 0.0107 µM and 0.721.
In the same order, the values of chain 1 D106N G109N are ≥ 10 µM and 0.301.
As for chain 1 M105S D106E, in the data set with fluorescein, the Kd was ≥ 10 µM. Moreover, the yeast surface expression in data set [1] turned out to be 1.32.
Regarding chain 1 D31V N35C, the Kd in the data set with fluorescein was ≥ 10 µM. Besides, the yeast surface expression in data set [1] is 0.424.
With chain 1 D31S V37P, in the data set with fluorescein, the Kd was ≥ 10 µM. In data set [1], the yeast surface expression worked out at 0.675.
Turning to chain 1 G100W S101E, the Kd with fluorescein was ≥ 10 µM. Also, the yeast surface expression in data set [1] is 0.429.
chain 1 N35Y W36Y V37D: in the data set with fluorescein, the Kd is ≥ 10 µM. For the same variant, the yeast surface expression in data set [1] turned out to be 1.04.
chain 1 F29P V37W: the Kd with fluorescein is ≥ 10 µM. Also, in data set [1], the yeast surface expression is 0.685.
As to chain 1 G104A D106Q, the Kd in the data set with fluorescein was ≥ 10 µM. The yeast surface expression in data set [1] amounted to 0.575.
The corresponding values for chain 1 Y107S W108S are ≥ 10 µM and 0.484.
Turning to chain 1 W108D G109I, in the data set with fluorescein, the Kd was ≥ 10 µM. Moreover, the yeast surface expression in data set [1] was determined as 0.209.
In the same order, the values of chain 1 D106T Y107V are 5.37 µM and 0.829.
Regarding chain 1 G104E G109C, the Kd with fluorescein was ≥ 10 µM. For the same variant, in data set [1], the yeast surface expression is 0.21.
In the case of chain 1 D106H W108I, the Kd in the data set with fluorescein is ≥ 10 µM. The yeast surface expression in data set [1] was 0.67.
With chain 1 F29C V37E, the Kd in the data set with fluorescein came to 6.96 µM. Also, the yeast surface expression in data set [1] was 0.973.
The corresponding values for chain 1 G100D G104A are ≥ 10 µM and 0.116.
In the same order, the values of chain 1 S30D W36V V37L are ≥ 10 µM and 0.433.
In the same order, the values of chain 1 T28Y W36Q are ≥ 10 µM and 0.297.
For the variant chain 1 T28Y W36M, in the data set with fluorescein, the Kd is ≥ 10 µM. Further, the yeast surface expression in data set [1] was found to be 0.486.
In the same order, the values of chain 1 M105T Y107D are ≥ 10 µM and 0.467.
In the case of chain 1 M105F W108L, the Kd in the data set with fluorescein amounted to 0.00175 µM. The yeast surface expression in data set [1] was 0.451.
In the case of chain 1 G100Y W108L, the Kd with fluorescein was ≥ 10 µM. For the same variant, the yeast surface expression in data set [1] was 0.393.
In the same order, the values of chain 1 W33N N35T are ≥ 10 µM and 0.979.
On to chain 1 D31N Y32L, for which the Kd in the data set with fluorescein came to 0.00546 µM. Also, in data set [1], the yeast surface expression was found to be 0.878.
The corresponding values for chain 1 Y102C G104H are ≥ 10 µM and 0.609.
The corresponding values for chain 1 S30Q N35K are ≥ 10 µM and 0.304.
chain 1 D31L V37F: in the data set with fluorescein, the Kd stood at 0.0507 µM. In addition, the yeast surface expression in data set [1] was 0.743.
For the variant chain 1 S30W, the Kd with fluorescein worked out at 0.00215 µM. In addition, the yeast surface expression in data set [1] is 0.701.
The corresponding values for chain 1 S30Q are 0.000938 µM and 1.12.
Regarding chain 1 D31M Y32V, the dissociation constant (Kd) with fluorescein was ≥ 10 µM. The yeast surface expression in data set [1] is 0.528.
For the variant chain 1 T28E V37C, the Kd with fluorescein stood at 0.000369 µM. Further, in data set [1], the yeast surface expression came out at 0.863.
The corresponding values for chain 1 G100R S101H are ≥ 10 µM and 0.282.
The corresponding values for chain 1 M34P W36N are ≥ 10 µM and 0.506.
Take chain 1 G104V D106P: the dissociation constant (Kd) in the data set with fluorescein is ≥ 10 µM. For the same variant, the yeast surface expression in data set [1] was found to be 0.232.
Regarding chain 1 M34F W36M, the Kd in the data set with fluorescein was determined as 0.0562 µM. Further, the yeast surface expression in data set [1] stood at 0.872.
In the case of chain 1 S101W G104Y, the Kd with fluorescein is ≥ 10 µM. For the same variant, the yeast surface expression in data set [1] turned out to be 0.203.
Take chain 1 S30N N35W: the Kd with fluorescein is ≥ 10 µM. Further, the yeast surface expression in data set [1] is 0.529.
For the variant chain 1 S101D Y102F, in the data set with fluorescein, the Kd was ≥ 10 µM. The yeast surface expression in data set [1] turned out to be 0.93.
With chain 1 S101N G109D, the Kd in the data set with fluorescein is ≥ 10 µM. In data set [1], the yeast surface expression was 0.316.
chain 1 S30W N35I: the Kd in the data set with fluorescein was ≥ 10 µM. Moreover, in data set [1], the yeast surface expression was found to be 0.743.
The corresponding values for chain 1 F29T M34N are ≥ 10 µM and 0.548.
The corresponding values for chain 1 S101K D106V are ≥ 10 µM and 0.257.
Take chain 1 G104Q Y107V: the Kd in the data set with fluorescein was ≥ 10 µM. For the same variant, in data set [1], the yeast surface expression stood at 0.941.
In the same order, the values of chain 1 M34C V37F are ≥ 10 µM and 0.777.
Regarding chain 1 G100I Y107D, the Kd with fluorescein was ≥ 10 µM. In addition, the yeast surface expression in data set [1] turned out to be 0.381.
Regarding chain 1 S101H D106C, the equilibrium dissociation constant (Kd) with fluorescein was ≥ 10 µM. For the same variant, in data set [1], the yeast surface expression was found to be 0.467.
Turning to chain 1 F29H W36D, the Kd with fluorescein is ≥ 10 µM. In addition, the yeast surface expression in data set [1] turned out to be 0.486.
Turning to chain 1 G104Y M105N, the Kd in the data set with fluorescein is ≥ 10 µM. For the same variant, the yeast surface expression in data set [1] came to 1.13.
Turning to chain 1 F29E Y32V, in the data set with fluorescein, the Kd was ≥ 10 µM. Besides, in data set [1], the yeast surface expression was 0.811.
As for chain 1 Y102E D106M, the Kd with fluorescein was ≥ 10 µM. For the same variant, the yeast surface expression in data set [1] turned out to be 0.531.
In the same order, the values of chain 1 Y103M W108Q are 0.0896 µM and 0.547.
In the same order, the values of chain 1 Y103W W108L are 0.00166 µM and 0.629.
Consider chain 1 F29Y D31P, for which, in the data set with fluorescein, the Kd is ≥ 10 µM. The yeast surface expression in data set [1] came out at 0.888.
In the same order, the values of chain 1 T28E S30V are 0.0015 µM and 0.928.
The corresponding values for chain 1 Y102K Y103D are 0.0132 µM and 1.24.
On to chain 1 S101P W108T, for which, in the data set with fluorescein, the equilibrium dissociation constant (Kd) is ≥ 10 µM. The yeast surface expression in data set [1] was 0.168.
The corresponding values for chain 1 T28W N35H are ≥ 10 µM and 0.727.
